# Legend:
# [1] = molecular target: Crotalus durissus terrificus venom; experiment: ELISA, venom-coated wells (5 µg/ml); undiluted
# [2] = molecular target: Crotalus durissus terrificus venom; experiment: ELISA, venom-coated wells; 1:125
# [3] = molecular target: Crotalus durissus terrificus venom; experiment: ELISA, venom-coated wells; 1:625
# [4] = molecular target: Crotalus durissus terrificus venom; experiment: ELISA, venom-coated wells; 1:3125
# [5] = molecular target: Crotalus durissus terrificus venom; experiment: ELISA, venom-coated wells; 1:312,500
# [6] = molecular target: Crotalus durissus terrificus venom; experiment: ELISA, venom-coated wells; 1:25
# [7] = molecular target: Crotalus durissus terrificus venom; experiment: ELISA, venom-coated wells (5 µg/ml); 1:3125
# [8] = molecular target: Crotalus durissus terrificus venom; experiment: ELISA, venom-coated wells (5 µg/ml); 1:25
# [9] = molecular target: Crotalus durissus terrificus venom; experiment: ELISA, venom-coated wells; 1:5
# [10] = molecular target: Crotalus durissus terrificus venom; experiment: ELISA, venom-coated wells; 1:62,500
# [11] = molecular target: Crotalus durissus terrificus venom; experiment: ELISA, venom-coated wells (5 µg/ml); 1:625
# [12] = molecular target: Crotalus durissus terrificus venom; experiment: ELISA, venom-coated wells (5 µg/ml); 1:5
# [13] = molecular target: Crotalus durissus terrificus venom; experiment: ELISA, venom-coated wells (5 µg/ml); 1:125
substance,measurement,setting,value
preimmune chicken IgY (PEG prep) (antibody),ELISA absorbance,[1],0.003 absorbance
same,ELISA absorbance,[2],< 0 absorbance
same,ELISA absorbance,[3],< 0 absorbance
same,ELISA absorbance,[4],< 0 absorbance
same,ELISA absorbance (absorbance (412 nm filter)),[5],0.01
same,ELISA absorbance,[6],0.016 absorbance
same,ELISA absorbance,[7],0.002 absorbance
same,ELISA absorbance,[8],0 absorbance
same,ELISA absorbance,[9],< 0 absorbance
same,ELISA absorbance (absorbance (412 nm filter)),[10],0.001
same,ELISA absorbance,[11],0 absorbance
same,ELISA absorbance,[12],< 0 absorbance
same,ELISA absorbance,[13],0.003 absorbance
